In publication PMC12307814, “The structure of the Tad pilus alignment complex reveals a periplasmic conduit for pilus extension” (Nature Communications, 2025):

Tests used:
[1] = target: the molecule itself; test: SEC-MALS; single purified protein; 50 uL at 2 mg/mL on a WTC 015S5 column, 50 mM HEPES, 150 mM NaCl, 200 mM arginine, 1 mM TCEP, pH 8.0, 0.8 mL/min
[2] = target: T1, periplasmic N-domain of RcpA (RcpAN) (Pseudomonas aeruginosa, UniProt Q9HW96 28-115); test: SEC-MALS; co-expressed (two plasmids) and co-purified RcpC_(33-303)-RcpAN complex; 50 uL at 2 mg/mL on a WTC 015S5 column, 50 mM HEPES, 150 mM NaCl, 200 mM arginine, 1 mM TCEP, pH 8.0; conditions: both partners purified
T1 construct: RcpA outer membrane secretin, Pseudomonas aeruginosa, periplasmic N-domain (9.7 kDa, small globular Ig domain fold); Gene codon optimised, in pET28a; also called His-RcpAN; His-RspAN; source: E. coli BL21 (DE3), purified (Ni-NTA, SEC); also co-expressed with RcpC constructs and co-purified
T1 sequence: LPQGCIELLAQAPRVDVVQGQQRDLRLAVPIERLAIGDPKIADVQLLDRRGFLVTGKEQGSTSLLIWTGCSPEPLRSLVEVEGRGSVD

B1: RcpC periplasmic domain (RcpC_(33-303)) (domain or fragment)
chain: NAHAPSVAPASATVDASLEKLERKPVLVASRDLPALAVIGRDDLSVELLRTAPVGSYDRPEALLGKRVWVAVPAGSILSAATLEPGGPLARTIRPDERAMAIAVDEVVGGGGFVLPGDYVDVMLFVRDERDGESTPLAQLVLPGVRVLTYGERIAVGSDGQDRSNQEKDPRPPRTAVLAVPEDGVARLMLASQAGSLRLAIRSKDEELYRREQEGALLQASLGAPSAALSLDQLLERRKPTAPSVRSAAPRVPVANGVTVYRGSAMTHEAP
notes: RcpC, Pseudomonas aeruginosa, residues 33-303 of the full-length protein (RcpC_(1-303)); lacks the N-terminal transmembrane helix; holds D1, D2, linker L3 and the C-terminal β-hairpin; Gene codon optimised, in pET21a; also called RcpCΔN; periplasmic region of RcpC; source: E. coli BL21 (DE3), purified (Ni-NTA, SEC); also co-expressed with RcpAN and co-purified; not shown: His tag (from the Ni-NTA …)
[1]
  stoichiometry N: 12 copies
[2]
  stoichiometry N: 2 RcpC per RcpA (12:6 RcpC:RcpA)
